Experimental data reported in PMC4521999 (Nature, 2015).

Key:
rhodopsin = rhodopsin (UniProt P02699); details: cited from earlier work
[1] = target: T1, His8-MBP-rhodopsin E113Q/M257Y (in N2C/N282C) (human, UniProt P08100 1-348, N2^NtermC | N282^ECL3C | E113^3.28Q | M257^6.40Y); assay: AlphaScreen or HTRF
[2] = target: T1, His8-MBP-rhodopsin E113Q/M257Y (in …); assay: pull-down
[3] = target: WT rhodopsin (1–321)-TEV site-tTA (Tango construct) (human, UniProt P08100 1-321, N2^NtermC | N282^ECL3C); assay: Tango assay
[4] = target: E113Q/M257Y rhodopsin (1–321)-TEV site-tTA (Tango construct) (human, UniProt P08100 1-321, N2^NtermC | N282^ECL3C | E113^3.28Q | M257^6.40Y); assay: Tango assay

arrestin (from UniProt P10523)
Kd (rhodopsin): 50 nM

TGGRVLEDLKSCGLF [GαCT peptide, a high affinity peptide variant of the C-terminus of G-transducin (Gt)]
IC50 [1]: 700 nM

B1: 35S-labelled 3A_arrestin (L374A/V375A/F376A, in vitro translated) (natural protein, mouse, UniProt P20443 1-403, looked up)
chain: MAACGKTNKSHVIFKKVSRDKSVTIYLGKRDYVDHVSQVEPVDGVVLVDPELVKGKKVYVTLTCAFRYGQEDIDVMGLTFRRDLYFSRVQVYPPVGAMSVLTQLQESLLKKLGDNTYPFLLTFPDYLPCSVMLQPAPQDVGKSCGVDFEVKAFASDITDPEEDKIPKKSSVRLLIRKVQHAPPEMGPQPSAEASWQFFMSDKPLNLSVSLSKEIYFHGEPIPVTVTVTNNTDKVVKKIKVSVEQIANVVLYSSDYYVKPVASEETQEKVQPNSTLTKTLVLVPLLANNRERRGIALDGKIKHEDTNLASSTIIKEGIDRTVMGILVSYHIKVKLTVSGFLGELTSSEVATEVPFRLMHPQPEDPAKESVQDENAAAEEFARQNLKDTGENTEGKKDEDAGQDE
modifications: 35S-methionine
fold of the binding of WT arrestin to WT rhodopsin, with all-trans-retinal [2]: ~60 fold

B2: untagged 3A_arrestin (residues 10–392) (domain or fragment, mouse, UniProt P20443 10-392, looked up)
chain: SHVIFKKVSRDKSVTIYLGKRDYVDHVSQVEPVDGVVLVDPELVKGKKVYVTLTCAFRYGQEDIDVMGLTFRRDLYFSRVQVYPPVGAMSVLTQLQESLLKKLGDNTYPFLLTFPDYLPCSVMLQPAPQDVGKSCGVDFEVKAFASDITDPEEDKIPKKSSVRLLIRKVQHAPPEMGPQPSAEASWQFFMSDKPLNLSVSLSKEIYFHGEPIPVTVTVTNNTDKVVKKIKVSVEQIANVVLYSSDYYVKPVASEETQEKVQPNSTLTKTLVLVPLLANNRERRGIALDGKIKHEDTNLASSTIIKEGIDRTVMGILVSYHIKVKLTVSGFLGELTSSEVATEVPFRLMHPQPEDPAKESVQDENAAAEEFARQNLKDTGENTE
IC50 [1]: 15 nM

B3: WT arrestin (10–392)-TEV protease (Tango construct) (domain or fragment, mouse, UniProt P20443 10-392, looked up)
chain: SHVIFKKVSRDKSVTIYLGKRDYVDHVSQVEPVDGVVLVDPELVKGKKVYVTLTCAFRYGQEDIDVMGLTFRRDLYFSRVQVYPPVGAMSVLTQLQESLLKKLGDNTYPFLLTFPDYLPCSVMLQPAPQDVGKSCGVDFEVKAFASDITDPEEDKIPKKSSVRLLIRKVQHAPPEMGPQPSAEASWQFFMSDKPLNLSVSLSKEIYFHGEPIPVTVTVTNNTDKVVKKIKVSVEQIANVVLYSSDYYVKPVASEETQEKVQPNSTLTKTLVLVPLLANNRERRGIALDGKIKHEDTNLASSTIIKEGIDRTVMGILVSYHIKVKLTVSGFLGELTSSEVATEVPFRLMHPQPEDPAKESVQDENLVFEEFARQNLKDTGENTE
fold increase of binding with all-trans-retinal [3]: ~3 fold

B4: 3A_arrestin (10–392)-TEV protease (Tango construct) (domain or fragment, mouse, UniProt P20443 10-392, looked up)
chain: SHVIFKKVSRDKSVTIYLGKRDYVDHVSQVEPVDGVVLVDPELVKGKKVYVTLTCAFRYGQEDIDVMGLTFRRDLYFSRVQVYPPVGAMSVLTQLQESLLKKLGDNTYPFLLTFPDYLPCSVMLQPAPQDVGKSCGVDFEVKAFASDITDPEEDKIPKKSSVRLLIRKVQHAPPEMGPQPSAEASWQFFMSDKPLNLSVSLSKEIYFHGEPIPVTVTVTNNTDKVVKKIKVSVEQIANVVLYSSDYYVKPVASEETQEKVQPNSTLTKTLVLVPLLANNRERRGIALDGKIKHEDTNLASSTIIKEGIDRTVMGILVSYHIKVKLTVSGFLGELTSSEVATEVPFRLMHPQPEDPAKESVQDENAAAEEFARQNLKDTGENTE
fold increase of binding signal with all-trans-retinal [4]: ~5 fold
